Assay in all cases: cell-based or functional assay
One assay concerns the target hGLP-1R (Homo sapiens, UniProt P43220).
Assay [1] concerns the target human glucagon receptor (human) (UniProt P47871).
For assay [2], the target named is T1, human GIP receptor (human) (UniProt P48546).
T1 sequence (looked up): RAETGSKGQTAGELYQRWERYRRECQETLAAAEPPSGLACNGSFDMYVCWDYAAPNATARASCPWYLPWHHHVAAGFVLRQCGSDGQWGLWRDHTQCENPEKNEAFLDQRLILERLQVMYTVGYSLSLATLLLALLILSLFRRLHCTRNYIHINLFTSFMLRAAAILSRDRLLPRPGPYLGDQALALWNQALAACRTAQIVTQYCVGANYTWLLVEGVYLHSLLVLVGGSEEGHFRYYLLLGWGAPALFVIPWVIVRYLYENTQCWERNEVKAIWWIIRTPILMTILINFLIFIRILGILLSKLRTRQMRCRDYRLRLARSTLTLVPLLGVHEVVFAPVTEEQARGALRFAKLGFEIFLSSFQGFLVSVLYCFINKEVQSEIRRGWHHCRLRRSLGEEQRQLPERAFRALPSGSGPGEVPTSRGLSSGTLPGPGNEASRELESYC

Starred links: 1 amine or outer side, 2 acyl side, 3 side chain; linkers in the order of their positions; H or OH if unused. Non-standard residues stand in square brackets, D forms with d. Groups on a side chain read outwards from the residue. No end group written: not given here. *: point of attachment. C18 diacid = O=C(O)CCCCCCCCCCCCCCCCC(=O)*; γGlu = O=C(O)[C@H](CCC(=O)[*:2])N[*:1]; 4Pal = N[C@@H](Cc1ccncc1)C(=O)O; αMeL = CC(C)C[C@](C)(N)C(=O)O; Dab = NCC[C@H](N)C(=O)O; AEEA = NCCOCCOCC(=O)O; Aib = CC(C)(N)C(=O)O

Among the data in patent US20240270821A1, “GIP/GLP1/GCG TRI-RECEPTOR AGONISTS AND USES THEREOF” (priority 2023, published 2024) are Relative cAMP EC50 values, retold here.

Chain of hGLP-1R (P43220 24-463): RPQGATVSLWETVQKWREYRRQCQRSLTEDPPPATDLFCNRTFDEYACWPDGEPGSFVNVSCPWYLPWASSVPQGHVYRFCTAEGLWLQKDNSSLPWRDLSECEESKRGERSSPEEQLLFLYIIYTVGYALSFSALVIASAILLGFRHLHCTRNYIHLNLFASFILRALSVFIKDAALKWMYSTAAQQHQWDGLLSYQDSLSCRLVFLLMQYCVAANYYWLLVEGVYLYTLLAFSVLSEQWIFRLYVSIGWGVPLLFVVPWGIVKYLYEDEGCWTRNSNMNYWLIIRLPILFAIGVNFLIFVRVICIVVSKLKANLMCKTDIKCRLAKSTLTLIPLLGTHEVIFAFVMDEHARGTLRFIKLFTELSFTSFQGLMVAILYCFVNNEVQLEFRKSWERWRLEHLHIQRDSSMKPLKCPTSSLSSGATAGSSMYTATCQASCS
Chain of human glucagon receptor (human) (P47871 26-477): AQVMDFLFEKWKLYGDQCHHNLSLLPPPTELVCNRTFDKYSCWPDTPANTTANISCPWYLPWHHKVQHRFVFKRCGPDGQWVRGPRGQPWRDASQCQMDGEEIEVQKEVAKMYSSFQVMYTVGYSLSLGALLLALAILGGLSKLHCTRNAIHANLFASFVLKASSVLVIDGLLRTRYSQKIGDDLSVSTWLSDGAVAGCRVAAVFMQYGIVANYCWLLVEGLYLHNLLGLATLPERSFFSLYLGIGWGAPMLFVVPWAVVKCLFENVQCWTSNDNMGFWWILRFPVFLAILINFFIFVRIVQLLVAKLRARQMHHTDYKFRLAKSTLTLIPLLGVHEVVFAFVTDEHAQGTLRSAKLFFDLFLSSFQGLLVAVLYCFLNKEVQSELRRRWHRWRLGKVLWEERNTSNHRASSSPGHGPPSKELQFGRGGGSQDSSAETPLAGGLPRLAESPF

B1: Example 666 (SEQ ID NO: 672) (peptide)
chain: YXQGTXTSDXSILLDKKAQXAFIEXLEEGGPSSGAPPPSGSGE
modifications: synthetic construct; SITE 2: note = 2-Aminoisobutyric Acid; SITE 6: note = alpha-methyl-2-fluoro-L-phenylalanine; SITE 10: note = 3-(4-Pyridyl)-L-alanine; SITE 17: note = Lysine is chemically modified through conjugation of the epsilon-amino group of the Lysine side chain with (gamma-Glu)2-CO-(CH2)1
Turning to B1, the figures for the Relative cAMP EC50 (with hGLP-1R; in assay [1]; in assay [2]) were 0.337 nM, 2 nM and 0.0203 nM, respectively.

B2: Example 663 (SEQ ID NO: 669) (peptide)
chain: YXQGTXTSDXSILLDKKAQXAFIEYLXEGGPSSGAPPPSGTGE
modifications: synthetic construct; SITE 2: note = 2-Aminoisobutyric Acid; SITE 6: note = alpha-methyl-2-fluoro-L-phenylalanine; SITE 10: note = 3-(4-Pyridyl)-L-alanine; SITE 17: note = Lysine is chemically modified through conjugation of the epsilon-amino group of the Lysine side chain with (2-[2-(2-Amino-ethoxy))
For the molecule B2, the Relative cAMP EC50 with hGLP-1R is 1.29 nM; in assay [1], 1.95 nM; in assay [2], 0.0893 nM.

B3: Example 665 (SEQ ID NO: 671) (peptide)
chain: YXQGTXTSDXSILLDXKAQXAFIEXLEEGGPSSGAPPPSGTGE
modifications: synthetic construct; SITE 2: note = 2-Aminoisobutyric Acid; SITE 6: note = alpha-methyl-2-fluoro-L-phenylalanine; SITE 10: note = 3-(4-Pyridyl)-L-alanine; SITE 16: note = L-ornithine; SITE 17: note = Lysine is chemically modified through conjugation of the epsilon-amino group of the Lysine side chai
For B3, the Relative cAMP EC50 with hGLP-1R turned out to be 0.284 nM; in assay [1], 2.94 nM; in assay [2] it was 0.0223 nM.

B4: Example 672 (SEQ ID NO: 678) (peptide)
chain: YXQGTXTSDXXIXLDXKAAXEFIEXLLEGGPSSGAPPPSGS
modifications: synthetic construct; SITE 2: note = 2-Aminoisobutyric Acid; SITE 6: note = alpha-methyl-2-fluoro-L-phenylalanine; SITE 10: note = 3-(4-Pyridyl)-L-alanine; SITE 11: note = alpha-methyl-L-serine; SITE 13: note = alpha-methyl-leucine; SITE 16: note = L-ornithine; SITE 17: note = Lysine is chemically mo
For B4, the values for the Relative cAMP EC50 (in the assay with hGLP-1R; in assay [1]; in assay [2]) were 0.389 nM, 1.19 nM and 0.014 nM, respectively.

B5: Example 695 (SEQ ID NO: 701) (peptide)
chain: YXQGTXTSDXXIXLDXKAAXEFIEXLVEGGPSSGEPPPSGS
modifications: synthetic construct; SITE 2: note = 2-Aminoisobutyric Acid; SITE 6: note = alpha-methyl-2-fluoro-L-phenylalanine; SITE 10: note = 3-(4-Pyridyl)-L-alanine; SITE 11: note = alpha-methyl-L-serine; SITE 13: note = alpha-methyl-leucine; SITE 16: note = L-ornithine; SITE 17: note = Lysine is chemically mo
On to B5, for which the Relative cAMP EC50 is 0.254 nM in the assay with hGLP-1R, 1.93 nM in assay [1] and 0.0136 nM in assay [2].

B6: Example 693 (SEQ ID NO: 699) (peptide)
chain: YXQGTXTSDXXIXLDXKAAXEFIEXLVEGGPSSGAPPPSGS
modifications: synthetic construct; SITE 2: note = 2-Aminoisobutyric Acid; SITE 6: note = alpha-methyl-2-fluoro-L-phenylalanine; SITE 10: note = 3-(4-Pyridyl)-L-alanine; SITE 11: note = alpha-methyl-L-serine; SITE 13: note = alpha-methyl-leucine; SITE 16: note = L-ornithine; SITE 17: note = Lysine is chemically mo
Consider B6, for which the results for the Relative cAMP EC50 (with hGLP-1R; in assay [1]; in assay [2]) were 0.161 nM, 2.39 nM and 0.0104 nM, respectively.

B7: Example 891 (peptide)
chain: YXQGTFTSDXSQXLDKKAQXAFIEYLIEXGPSSGAPPPSGSGE
modifications: not fully specified; possible C-terminal amide; synthetic construct; SITE 2: note = 2-Aminoisobutyric Acid; SITE 10: note = 3-(4-Pyridyl)-L-alanine; SITE 13: note = alpha-methyl-leucine; SITE 17: note = Lysine is chemically modified through conjugation of the epsilon-amino group of the Lysine side chain with (gamma-Glu)2-CO-(CH2)16-CO2H; SITE 20:
Turning to B7, the Relative cAMP EC50 worked out at 3.25 nM with hGLP-1R, 3.14 nM in assay [1] and 0.155 nM in assay [2].

B8: Example 1107 (peptide)
chain: YXQGTFTSDXSQXLDXKAQXAFIEXLIAXGPSSGAPPPSGSEE
modifications: non-natural residues, lipidated Lys, C-terminal amide; synthetic construct; SITE 2: note = 2-Aminoisobutyric Acid; SITE 10: note = 3-(4-Pyridyl)-L-alanine; SITE 13: note = alpha-methyl-leucine; SITE 16: note = L-ornithine; SITE 17: note = Lysine is chemically modified through conjugation of the epsilon-amino group of the Lysine side chain with (gamma-Gl)
As to B8, the Relative cAMP EC50 in the assay with hGLP-1R was 0.51 nM; in assay [1], 5.66 nM; in assay [2] it was 0.0447 nM.

B9: Example 944 (peptide)
chain: YXQGTFTSDXSXXLDKKAQXAFIEXLLEGGPSSGAPPPSGSEE
modifications: synthetic construct; SITE 2: note = 2-Aminoisobutyric Acid; SITE 10: note = 3-(4-Pyridyl)-L-alanine; SITE 12: note = L-ornithine; SITE 13: note = alpha-methyl-leucine; SITE 17: note = Lysine is chemically modified through conjugation of the epsilon-amino group of the Lysine side chain with (gamma-Gl)
Consider B9, for which the results for the Relative cAMP EC50 (with hGLP-1R; in assay [1]; in assay [2]) were 4.86 nM, 6.16 nM and 0.216 nM, respectively.

B10: Example 946 (peptide)
chain: YXQGTFTSDXSQXLDXKAQXAFIEXLLEGGPSSGAPPPSGSEE
modifications: synthetic construct; SITE 2: note = 2-Aminoisobutyric Acid; SITE 10: note = 3-(4-Pyridyl)-L-alanine; SITE 13: note = alpha-methyl-leucine; SITE 16: note = L-ornithine; SITE 17: note = Lysine is chemically modified through conjugation of the epsilon-amino group of the Lysine side chain with (gamma-Gl)
Take B10: the figures for the Relative cAMP EC50 (with hGLP-1R; in assay [1]; in assay [2]) were 2.05 nM, 16.5 nM and 0.353 nM, respectively.

B11: Example 945 (peptide)
chain: YXQGTFTSDXSQXLDKKAQXAFIEXLLEGGPSSGAPPPSGSEE
modifications: synthetic construct; SITE 2: note = 2-Aminoisobutyric Acid; SITE 10: note = 3-(4-Pyridyl)-L-alanine; SITE 13: note = alpha-methyl-leucine; SITE 17: note = Lysine is chemically modified through conjugation of the epsilon-amino group of the Lysine side chain with (gamma-Glu)2-CO-(CH2)16-CO2H; SITE 20:
As to B11, the Relative cAMP EC50 in the assay with hGLP-1R was 3.9 nM; in assay [1] it was 18 nM; in assay [2], 0.246 nM.

B12: Example 937 (peptide)
chain: YXQGTFTSDXSQXLDXKAQXAFIEYLIEXGPSSGAPPPSGSEE
modifications: synthetic construct; SITE 2: note = 2-Aminoisobutyric Acid; SITE 10: note = 3-(4-Pyridyl)-L-alanine; SITE 13: note = alpha-methyl-leucine; SITE 16: note = L-ornithine; SITE 17: note = Lysine is chemically modified through conjugation of the epsilon-amino group of the Lysine side chain with (gamma-Gl)
As for B12, the Relative cAMP EC50 was determined as 2.52 nM with hGLP-1R, 5.52 nM in assay [1] and 0.222 nM in assay [2].

B13: Example 1108 (peptide)
chain: YXQGTFTSDXSQXLDXKAQXAFIEXLIEXGPSSGAPPPSGSEE
modifications: non-natural residues; C18 diacid-γGlu-AEEA on Lys; C-terminal amide; synthetic construct; SITE 2: note = 2-Aminoisobutyric Acid; SITE 10: note = 3-(4-Pyridyl)-L-alanine; SITE 13: note = alpha-methyl-leucine; SITE 16: note = L-ornithine; SITE 17: note = Lysine is chemically modified through conjugation of the epsilon-amino group of the Lysine side chain with (2-[2-(2-
In the case of B13, the Relative cAMP EC50 with hGLP-1R worked out at 0.752 nM; in assay [1] it was 4.96 nM; in assay [2] it was 0.0507 nM.

B14: Example 803 (peptide)
chain: Y[Aib]QGTFTSD[4Pal]S[Dab][αMeL]LDKK([AEEA-γGlu-C18 diacid])AQ[Aib]AFIEYLIE[Aib]GPSSGAPPPSGS-NH2
Consider B14, for which the Relative cAMP EC50 was determined as 2.02 nM in the assay with hGLP-1R, 9.75 nM in assay [1] and 0.232 nM in assay [2].

B15: Example 807 (peptide)
chain: YXQGTFTSDXSRXLDKKAQXAFIEYLIEXSPSSGAPPPSGS
modifications: synthetic construct; SITE 2: note = 2-Aminoisobutyric Acid; SITE 10: note = 3-(4-Pyridyl)-L-alanine; SITE 13: note = alpha-methyl-leucine; SITE 17: note = Lysine is chemically modified through conjugation of the epsilon-amino group of the Lysine side chain with (2-[2-(2-Amino-ethoxy)-ethoxy]-acetyl)
Take B15: the Relative cAMP EC50 is 1.72 nM with hGLP-1R, 12.4 nM in assay [1] and 0.108 nM in assay [2].

B16: Example 682 (SEQ ID NO: 688) (peptide)
chain: YXQGTXTSDXSIXLDXKAQXXFIEXLIEGGPSSGEPPPSGE
modifications: synthetic construct; SITE 2: note = 2-Aminoisobutyric Acid; SITE 6: note = alpha-methyl-2-fluoro-L-phenylalanine; SITE 10: note = 3-(4-Pyridyl)-L-alanine; SITE 13: note = alpha-methyl-leucine; SITE 16: note = L-ornithine; SITE 17: note = Lysine is chemically modified through conjugation of the epsil
In the case of B16, the Relative cAMP EC50 with hGLP-1R is 0.212 nM; in assay [1] it was 1.91 nM; in assay [2], 0.00661 nM.
